What was measured:
human VISTA [1] = biological target: T1, human VISTA (human, UniProt Q9H7M9 33-194, limits assumed); assay: flow cytometry on CHO-VISTA cells, pH 6.0, detection Anti-Fab 647 (legend: Fab on CHO-VISTA cells)
T1 construct: also called hVISTA

human VISTA [2] = biological target: T1, human VISTA; assay: flow cytometry on CHO-VISTA cells, pH 7.4, detection Anti-Fab 647 (legend: Fab on CHO-VISTA cells)
biotinylated hVISTA-Fc [3] = biological target: T2, biotinylated hVISTA-Fc (human, biotinylated (site not stated)); assay: competition ELISA at pH 6.0; SNS-101 dilutions pre-incubated with biotinylated hVISTA-Fc, then added to wells coated with VSIG-3 (blocked partner)
T2 construct: also called Human VISTA-Fc
T2 chain: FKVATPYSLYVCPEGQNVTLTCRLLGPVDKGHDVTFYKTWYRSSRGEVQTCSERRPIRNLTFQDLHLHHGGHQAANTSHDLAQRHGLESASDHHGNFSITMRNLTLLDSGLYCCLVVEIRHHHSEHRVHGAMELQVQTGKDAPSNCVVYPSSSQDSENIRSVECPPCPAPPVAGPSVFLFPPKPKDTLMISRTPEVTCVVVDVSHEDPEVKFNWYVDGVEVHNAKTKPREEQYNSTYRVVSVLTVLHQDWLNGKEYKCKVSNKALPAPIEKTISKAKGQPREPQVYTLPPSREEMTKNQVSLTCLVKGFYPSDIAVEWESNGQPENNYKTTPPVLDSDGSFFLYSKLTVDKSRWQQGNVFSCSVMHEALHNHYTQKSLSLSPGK

biotinylated hVISTA-Fc [4] = biological target: T2, biotinylated hVISTA-Fc; assay: competition ELISA at pH 6.0; SNS-101 dilutions pre-incubated with biotinylated hVISTA-Fc, then added to wells coated with VSIG-8 (blocked partner)
biotinylated hVISTA-Fc [5] = biological target: T2, biotinylated hVISTA-Fc; assay: competition ELISA at pH 6.0; SNS-101 dilutions pre-incubated with biotinylated hVISTA-Fc, then added to wells coated with LRIG-1 (blocked partner)
biotinylated hVISTA-Fc [6] = biological target: T2, biotinylated hVISTA-Fc; assay: competition ELISA at pH 6.0; SNS-101 dilutions pre-incubated with biotinylated hVISTA-Fc, then added to wells coated with PSGL-1 (blocked partner)
biotinylated hVISTA-Fc [7] = biological target: T2, biotinylated hVISTA-Fc; assay: competition ELISA at pH 6.0; SNS-101 dilutions pre-incubated with biotinylated hVISTA-Fc, then added to wells coated with Syndecan-2 (blocked partner)

| Binder | FOB (fold over background) (human VISTA [1]) | FOB (fold over background) (human VISTA [2]) | IC50 (biotinylated hVISTA-Fc [3]) | IC50 (biotinylated hVISTA-Fc [4]) | IC50 (biotinylated hVISTA-Fc [5]) | IC50 (biotinylated hVISTA-Fc [6]) | IC50 (biotinylated hVISTA-Fc [7]) |
| --- | --- | --- | --- | --- | --- | --- | --- |
| antibody 55873 (mab#2) (antibody, V domains shown, Fully human parental antibody; also called Anti-VISTA mAb #2) VH: EVQLVESGGGLVQPGGSLRLSCAASGFTFSSYSMNWVRQAPGKGLEWVSYISSSSSTIYYADSVKGRFTISRDNAKNSLYLQMNSLRAEDTAVYYCAREAGGVVGRVDFQHWGQGTLVTVSS VL: DIQMTQSPSSLSASVGDRVTITCQASQDISNYLNWYQQKPGKAPKLLIYDASNLETGVPSRFSGSGSGTDFTFTISSLQPEDIATYYCQQADFLPPWTFGGGTKVEIK | 29.4 | 34.8 | – | – | – | – | – |
| SNS-101 (antibody, human IgG1, V domains shown, Described as a fully human IgG1; also called antibody 67375) VH: EVQLVESGGGLVQPGGSLRLSCAASGFTFDDYSMNWVRQAPGKGLEWVSYISSDADTIYYADSVKGRFTISRDNAKNSLYLQMNSLRAEDTAVYYCAREAGGVLGRVDFQHWGQGTLVTVSS VL: DIQLTQSPSSLSASVGDRVTITCQASQDISNYLNWYQQKPGKAPKLLIYDASNLGTGVPSRFSGSGSGTDFTFTISSLQPEDIATYYCQQADFVPPWTFGGGTKVEIK | – | – | 6 nM | 6 nM | 6 nM | 7 nM | 6 nM |
